# Source: paper PMC6341043
# Values joined by “and” are separate entries in the source; they are usually repeats but may differ in a detail not shown here. Equal entries are not always repeated.
# Tests used:
# [1] = target: Jun (LexA fusion, positive control of the bacterial two-hybrid system); assay: two-hybrid; bacterial two-hybrid (LexA-WT and LexA-MUT fusions) in E. coli SU202; heterodimerization represses lacZ; quantitative beta-galactosidase activity against the strain with empty vectors pSR658 and pSR659, n = 3
# [2] = target: TraM (TraR antiactivator) of plasmid pAoF64/95 (Agrobacterium spp. (plasmid pAoF64/95)); assay: as above
fold lower beta-galactosidase activity than the empty-vector control strain [2],Substance,fold lower beta-galactosidase activity than the empty-vector control strain [1]
–,"Fos (LexA fusion, positive control of the bacterial two-hybrid system) (natural protein)",52 fold
2 fold and 3 fold,"TmsPs (short form of TmsP, tra M sequestering protein, of plasmid pAoF64/95) (natural protein)",–
